Measurements taken from the nanobody polyreactivity screen of Harvey et al. (2022).

Test: yeast display, Sf9 membrane polyspecificity reagent, FACS + sequencing; frameworks hold sequencing errors
Outline: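 After 36–48 hours of galactose induction, yeast (Saccharomyces cerevisiae BJ5465) displaying a synthetic nanobody library were stained at 4 °C for 1 hour with 10% biotinylated, detergent-solubilized Sf9 membrane reagent. Streptavidin microbeads enriched the stained cells before FACS sorting into low and high (top ~1%) gates on anti-HA and streptavidin fluorescence. Each clone's polyreactivity label reflects its gate of origin.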

Row | Sequence | polyreactivity (PSR sort gate)
1 | QVQLVESGGGLVQAGGSLRLSCAASGSTFGYNAMGWYRPAPGKERELVARITSSGGSTYYADSVKGRFTISRDNAKISVYLQMNSLKPEDTAVYYCAAGYPYRAVYRYYYWGQGTQVTVSS | high polyreactivity
2 | QVQLVESGGGLVQAGGSLRLSCAASGSTFGYNAMGWYRQAAGKERELVAGISSGGSTNYADSVKGRFTISRDNAKNTVYLQMNSLKPEDTAVYYCAAYKYDHRVDTGYDYWGQGTQVTVSS | low polyreactivity
3 | QVQLVESGGGLVQAGGSLRLSCAASGSTFGYNAMGWYRQAPGKEREFVATIRYSGDRTYYADSVKGRFTISRDNAKNTVYLQMNSLKPEDTAVYYCAADLYYNSYGRYGRYYYWGQGTQVNVSS | high polyreactivity
4 | QVQLVESGGGLVQAGGSLRLSCAASGSTFGYNAMGWYRQAPGKERELVAAISFSSGRTYYADSVKGRFTISRDNAKNTVYLQMNSLKPEDTAVYYCAALQYRRRPYGAVERYDYWGQGTQVTVSS | high polyreactivity
5 | QVQLVESGGGLVQAGGSLRLSCAASGSTFGYNAMGWYRQAPGKERELVAAISSSGGSTYYADSVKGRFTISRDNAKNTVYLQMNSLKPEDTAVYYCATEFFQYYSTKGYDYWGQGTQVTVSS | low polyreactivity
6 | QVQLVESGGGLVQAGGSLRLSCAASGSTFGYNAMGWYRQAPGKERELVAAITRSGGSTDYADSVKGRFTISRDNAKNTVYLQMNSLKPEDTAVYYCAADGDHPWWSQYDYWGQGTQVTVSS | low polyreactivity
7 | QVQLVESGGGLVQAGGSLRLSCAASGSTFGYNARGWYRQAPGKEREFVARIRSSGSTTYADSVKGRFTISRDNAKNTVYLQMNSLKPEDTAVYYCAARRLYGYSPWVRFGSYDYWGQGTQVTVSS | high polyreactivity
8 | QVQLVESGGGLVQAGGSLRLSCAASGSTFGYNDMGRYRQAPGKERELVADSSYSGDSTYSADSVKGRFTISRDNAQNTVYLQMNSLKPEDTAVYYCKADRFADYDDWGQGTQVTVSS | low polyreactivity
9 | QVQLVESGGGLVQAGGSLRLSCAASGSTFGYNDMGWYRQAPGKERELVAAIDTGVSTNYADSVKGRFTISRDNAKNTVYLQMNSLKPEDTAVYYCAKSGSAYWHSGWSVGFDYWGQGTQVTVSS | low polyreactivity
10 | QVQLVESGGGLVQAGGSLRLSCAASGSTFGYYAMGCYRQAPGKERELVAAITSGGSTKYADSVKGRFTISRDNAKNTVYLQMNSLKPEDTAVYYCATSRYFGYGFWGQGTQVTVSS | low polyreactivity
11 | QVQLVESGGGLVQAGGSLRLSCAASGSTFGYYAMGWSRQAPGKERELVAVITYSGGSTYYADSVKGRFTISRDNAKNTVYLQMNSLKPEDTAVYYCAAVIGVWYYYTYDYWGQGTQVTVSS | low polyreactivity
12 | QVQLVESGGGLVQAGGSLRLSCAASGSTFGYYAMGWYRQAPGKERELVAAISYSGGSTYYADSVKGRFTISRDNAKNTVYLQMNSLKPAVTAVYYCAARFTRQMYYWGQGTQVTVSS | high polyreactivity
13 | QVQLVESGGGLVQAGGSLRLSCAASGSTFGYYAMGWYRQAPGKERELVAAITDSGGITHYADSVKGRFTISRDNAKNTVYLQMNSLKPEDTAVYYCYARYLGYGWFDYWGQGTQVTVSS | low polyreactivity
14 | QVQLVESGGGLVQAGGSLRLSCAASGSTFGYYAMGWYRQAPGKERELVAAITIRGDGTYYADSVKGRFTISRDNAKNTVYLQMNSLIPEDTAVYYCAAEDWLWFDYWGQGTQVTVSS | high polyreactivity
15 | QVQLVESGGGLVQAGGSLRLSCAASGSTFGYYARLWYRQAPGKERDLVAAISYSGGSTYYADSVKGRFTISRDNAKNTVYLQMNSLKPEDTAVYYCAARFTRQMYYWGQGTQVTVSS | high polyreactivity
16 | QVQLVESGGGLVQAGGSLRLSCAASGSTFGYYGMGWYRQAPGKERELLAAISTGGRTNYADSVKGRFTISRDNAKNTVYLQMNSLKPEDTAVYYCAADFLSPAYRPSWYRFDYWGQGTQVTVSS | low polyreactivity
17 | QVQLVESGGGLVQAGGSLRLSCAASGSTFGYYTMGRYRQAPGKERELVAAITWSGGTTYYAESVKGRFTISRDNAKNPVYLQMNSLKPEDTAVYYCATRPWYYASPRTRFGSWGQGTQVTVSS | high polyreactivity
18 | QVQLVESGGGLVQAGGSLRLSCAASGSTFGYYTMGWYRQAPGKERELVAAISWGGGSTYYADSVKGRFTISRDNAKNTVYFQMNSLIPEDTAVYYCARTPVTSYKDDFYYWGQGTQVTVSS | low polyreactivity
19 | QVQLVESGGGLVQAGGSLRLSCAASGSTFGYYTMGWYRQAPGKERELVAAITWSGGSTYYADSVKGRFTISRDNAKNSVYLQINSLKPEDSSVYYCAADDYWTPFGYWGQGTQVTVSS | low polyreactivity
20 | QVQLVESGGGLVQAGGSLRLSCAASGSTFHDYAMGLYRQAPGKERELVAAISNSGGSTYYADSVKGRFTISRDNAKNTVYLQMNSLKPEDTAVYYCAARKYVAGHKYIMNYWGQGTQVTVSS | low polyreactivity

Row | Sequence | polyreactivity (PSR sort gate)
21 | QVQLVESGGGLVQAGGSLRLSCAASGSTFHGNAMGWYRQAPGKERELVAAISRSGGSTYYADSVKGRFTISRDNAKNTVYLQMNSLKPEDTAVYYCAADRPYYPLKYDYWGQGTQVTVSS | high polyreactivity
22 | QVQLVESGGGLVQAGGSLRLSCAASGSTFHKYVMGWYRQAPGKEREFVAAISRRGTRTYYADSVKGRFTISRDNAKNTVYLQMNSLKPEDTAVYYCNVYYYRTYTHFLPGYEYWGQGTQVTVSS | high polyreactivity
23 | QVQLVESGGGLVQAGGSLRLSCAASGSTFHLYAMGWYRKAPGKEREFVAAIRGRGGNTYADSVKGRFTISRDNAKNTVYLQMNSLKPEDTAVYYCAAPLLRDLRSPYSYNYWGQGTQVTVSS | low polyreactivity
24 | QVQLVESGGGLVQAGGSLRLSCAASGSTFHLYAMGWYRQAPGKETEFVPAIRGRGGNTYADSVKGRFTISRDNAKNTVYLQMNSLKPEDTAVYYCAAPLLRDLRSPYSYNYWGQGTQVTVSS | low polyreactivity
25 | QVQLVESGGGLVQAGGSLRLSCAASGSTFHLYAMGWYRQAPGKETEIVAAIRGRGGNTYADSVKGRFTISRDNAKHTVYFQMNSLKPEDTAVSYCATSISEYQDFTRYDYWGQGTQVTVSS | low polyreactivity
26 | QVQLVESGGGLVQAGGSLRLSCAASGSTFHNYAMGWYRQAPGKERELVAGISVRGGGTYYADSVKGRFTISRDNAKNTVYLQMNSLKPEDTAVYYCAPDFYWFWTYGTLWYGYEYWGQGTQVTVSS | high polyreactivity
27 | QVQLVESGGGLVQAGGSLRLSCAASGSTFHPNAMGWCRQAPRKQRELFAAITWSTSVTYYADSVKGRFTISRDNAKNTVFLQMISLKPEDSAVYYCNAGYMLDSFRYDHWGQCTQVTVSS | low polyreactivity
28 | QVQLVESGGGLVQAGGSLRLSCAASGSTFHPYAMGWYRQPPGKASELVAAINWRVGSTYYADSVKGRFTISRDNAKNTVYLQMTSQIPEDTAVYYCAVSYMATLGRSRYDYWGQGTQVTVSS | low polyreactivity
29 | QVQLVESGGGLVQAGGSLRLSCAASGSTFHRNAMGWYRQAPGKERELVAAITSGGSTNYADSVKGRFKISRDNAKNTVYLQMNSLKPEDTAVYYCAADEVWGRDLGEYWGQGTQVTVSS | low polyreactivity
30 | QVQLVESGGGLVQAGGSLRLSCAASGSTFHRYAMGWYRQAPGKERELVAAITSSGDITYYADSVKGRFTISRDNAKNTVYLQMNSLKPEDTAVYYCNADGFYSWLYDYWGQGTQVTVSS | low polyreactivity
31 | QVQLVESGGGLVQAGGSLRLSCAASGSTFHRYTMGWYRQAPGKERELLAAISWSGGSTYYADSVKGRFTISRDNAKNTVYLQMNSLKPEDTAVYYSNKVTVYRFRGDSWGQGTQVTVSS | high polyreactivity
32 | QVQLVESGGGLVQAGGSLRLSCAASGSTFHRYTMGWYRQAPGKERELVAAISSGGRTYYADSVKGRFTISRDNAKNTVYLQMNSLKPEDTAVYYCNSRYPRQYWGGYDYWGQGTQVTVSS | high polyreactivity
33 | QVQLVESGGGLVQAGGSLRLSCAASGSTFHWYAMGWYRQAPGKERELVAAITSGGSTYYADSVKGRFTISRDNAKNTVYLQMNSLKPEDTAVYYCNADRVDSFFDGPSRGYDYWGQGTQVTVSS | low polyreactivity
34 | QVQLVESGGGLVQAGGSLRLSCAASGSTFHYAMGWYRPAPGKERELVAAITYGGGRTFYADSVKGRFTISRDNAKNTVYLQMNSLKPEDTAVYYCAKVVYYYGRGWTDYRSTMDSWGQGTQVTVSS | low polyreactivity
35 | QVQLVESGGGLVQAGGSLRLSCAASGSTFHYYAMGWYRQAPGKERELVAAISKRGGSTYYADSVKGRFTISRDNAKNNVYLQMNSLKPEDTSVYYCAKTWVSYSRYHYEYWGQGTQVTVSS | high polyreactivity
36 | QVQLVESGGGLVQAGGSLRLSCAASGSTFHYYAMGWYRQAPGKERELVAAISKSGGITYYADSVKGRFTISRDNAKNTVSLQMNSLKPEDTAVYYCNAYSASGYDYWGQGTQVTVSS | high polyreactivity
37 | QVQLVESGGGLVQAGGSLRLSCAASGSTFIAYALGWYRQAPGKERELDAAITTGDSTNYADSVKGRFTISRDNAKNTVYLQMNSLKPEDTAVYYCNADGTDFHFLSEIGSSQEGDYWGQGTQVTVSS | low polyreactivity
38 | QVQLVESGGGLVQAGGSLRLSCAASGSTFIDNTMGWYRQAPGKERELVASIRRSGGSTYYADSVKGRFTISRDNAKNTVYLQMNSLKPEDTAVYYCDVATRYHTTFWYYYWGQGTQVTVSS | high polyreactivity
39 | QVQLVESGGGLVQAGGSLRLSCAASGSTFIEYAMGWYRQAPGTERELVAGITTSSGRTSYADSVKGRFSISRDNAKNTVYLQMNSLKPEDTAVYYCAADIYYYSPYDSFWYSEVDYWGQGTQVTVSS | low polyreactivity
40 | QVQLVESGGGLVQAGGSLRLSCAASGSTFIFNTMGWYRQAPGKEREVVASITGDGRTNYADSVKGRFTISRDNAKNTVYLQMNSLKPEDTAVYYCAADGYDQYPLWAPPGDYWGQGTQVTVSS | low polyreactivity
